In US20160032001A1 (APEXIGEN, published 2016):
Read-outs that look alike come from different tables or passages of the source.

T1: RANKL expressed on the surface of 293 cells (UniProt O14788 1-317, limits assumed)
T1 construct: whole, on cells; also called RANKL-transfected 293 cells; cells expressing RANKL
T1 sequence (looked up): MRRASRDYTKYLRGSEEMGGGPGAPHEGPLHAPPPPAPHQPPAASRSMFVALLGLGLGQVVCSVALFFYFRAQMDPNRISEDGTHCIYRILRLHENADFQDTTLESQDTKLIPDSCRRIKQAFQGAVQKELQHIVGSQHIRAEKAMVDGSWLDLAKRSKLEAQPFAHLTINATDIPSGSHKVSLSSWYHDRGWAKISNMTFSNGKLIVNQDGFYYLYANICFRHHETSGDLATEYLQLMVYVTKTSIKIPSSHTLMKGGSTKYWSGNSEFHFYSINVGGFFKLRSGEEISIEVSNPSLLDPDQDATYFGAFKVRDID

T2: human RANKL protein (human, UniProt O14788 140-317, limits assumed)
T2 sequence (looked up): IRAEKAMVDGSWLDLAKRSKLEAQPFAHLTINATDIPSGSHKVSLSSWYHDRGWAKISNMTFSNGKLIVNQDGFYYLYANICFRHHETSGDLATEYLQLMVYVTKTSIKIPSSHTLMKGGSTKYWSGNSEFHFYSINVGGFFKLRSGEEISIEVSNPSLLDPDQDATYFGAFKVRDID

B1: clone 7 rabbit anti-RANKL antibody (antibody, V domains shown)
VH: QEQLKESGGGLVTPGGTLTLTCTASGFSLTTNGMSWVRQAPGKGLEWIGYIYSGGSPYYANWAKGRFTISKTSSTTVDLKMTSLTTEDTATYFCARHLSGGGWYLDIWGPGTLVTVSL
VL: DMTQTPASVEVAVGGTVTINCQASQNIGSNLAWYQQKPGQPPKLLIYGASTLASGVSSRFKGSGSGTQFTFTISDVECTDPATYYCQQAYSISNVDNPFGGGTEVVVK
B2: clone 379 rabbit anti-RANKL antibody (antibody, V domains shown)
VH: QEQLKESGGGLVTPGGTLTLTCTASRFSLINIGMSWVRQAPGRGLEWIGYIYSGGSPYYANWAKGRFTISRTSTTVDLKMTSLTTEDTATYFCARHASDGGWYLDIWGPGTLVTVSL
VL: DMIQTPASVEVAVGGTVTINCQASQSIGSNLAWYQQKPGQPPKLLIYLASTLPSGVPSRFKGSGSGTQFTFTISDVECTDAATYYCQQAYTASNVDNAFGGGTEVVVK
B3: clone 238 rabbit anti-RANKL antibody (antibody, V domains shown)
VH: QEQLKESGGGLVTPGGTLTLTCTASGFSLNTNAMSWVRQAPGKGLEWIGYIYSGGSPYYANWAKGRFTISRTSTTVHLKMTSLTTEDTATYFCASHTSGGGWYLDIWGPGTLVTVSL
VL: DMIQTPASVEVAVGGTVTINCQASQNIGSNLAWYQQKPGQPPKLLIYGTSTLASGVSSRFKGSGFGTQFTFTISDVECTDAATYYCQQAYSTSKIDNAFGGGTEVVVK
B4: clone 246 rabbit anti-RANKL antibody (antibody, V domains shown)
VH: QSVKESGGGLVTPGGTLTLTCTASGLSLSGNGMSWVRQAPGKGLEWIGYIYSGSSPYYASWAKGRFTISKTSSTTVDLKMTSLTTEDTATYFCARHTSGGGWYLDIWGPGTLVTVSL
VL: DMIQTPASVEVAVGGTVTINCQASQSIGSNLAWYQQKPGQPPKLLIYSASTLASGVSSRFKGSGSGTDYTLTISDVECTDAATYYCQQAYSISNVENPFGGGTEVVVK
B5: clone 318 rabbit anti-RANKL antibody (antibody, V domains shown)
VH: QDQLKESGGGLVTPGGTLTLTCTASGFSLGSNGMSWVRQAPGKGLEWIGYIYSGSSPYYASWAKGRFTISKTSSTTVDLKMTSLTTEDTATYFCAGHAKGGGWYLDIWGPGTLVTVSL
VL: DMTQTPASVSAAVGGTVTINCQASQSIGSNLGWYQQKPGQPPKLLIYGASTLASGVSSRFKGSGSGTHFAFTISDVECTDAATYYCQQAYSVGNVDNAFGGGTEVVVK
B6: clone 565 rabbit anti-RANKL antibody (antibody, V domains shown)
VH: QEDLKESGGGLITPGGTLTLTCTGSGFSLSSDGMSWVRQAPGKGLEWIGYIYSGSSPYYANWAKGRFTISKTSSTTVDLKMTSLTTEDTATYFCARHLSGGGWYLDIWGPGTLVTVSL
VL: DMIQTPASVSEPVGGTVTINCQASQNIGSNLAWYQQKPGQPSKLLIYKASTLASGVPSRFKGSGSGTDFTLTISDLECADAATYYCQQAYTISNVDNAFGGGTEVVVK
B7: clone 91 rabbit anti-RANKL antibody (antibody, V domains shown)
VH: QSLEESGGRLVKPDETLTLTCTVSGSSLYNYEINWVRQAPGKGLEWIGYIDVGSGTWYASWAKGRFTISKTSTTVDLKITSPTTEDTATYFCTRKYNPMDLWGPGTLVTVSS
VL: DMTQTPASVEVAVGGTVTIKCQASQNIGSNLAWYQQKPGQPPKLLIYSTSTVASGVPSRFKGSGFGTQFTLTISGVQCDDAATYYCQQGYSAGNVNNPFGGGTEVVVK
B8: clone 256 rabbit anti-RANKL antibody (antibody, V domains shown)
VH: QSLEESGGRLVTPGTPLTLTCTVSGFSLSKYEINWVRQAPGKGLEWIGYIDVGSGTWYASWAKGRFTISKTSTTVALRITSPTTEDTATYFCSRQYNPMDLWGPGTLVTVSS
VL: DMTQTPASVEAAVGGTVTIKCQASQNIGSNLAWYQQKPGQRPKLLIYSASTLASGVPSRFKGSGSGTQFTLTISGVQCDDAATYYCQQGYSVGNVNNAFGGGTEVVVK
B9: clone 220 rabbit anti-RANKL antibody (antibody, V domains shown)
VH: QSLEESGGRLVTPGTPLTLTCTVSGFSLSKYEINWVRQAPGKGLEWIGYIDVGSGTWYASWAKGRFTISKTSTTVALRITSPTTEDTATYFCSRQYNPMDLWGPGTLVTVSS
VL: DMTQTPASVEAAVGGTVTIKCQASQNIGSNLAWYQQKPGQRPKLLIYSASTLASGVPSRFKGSGSGTQFTLTISGVQCDDAATYYCQQGYSVGNVNNAFGGGTEVVVK
B10: clone 37 rabbit anti-RANKL antibody (antibody, V domains shown)
VH: QSVEESGGRLVTPGTPLTLTCTVSGFSLSNDVMSWVRQAPGKGLEWIGYIWSGGSPYYANWAKGRFTISKSSSTTVDLKITSPTTEDTAAYFCARGFGSSGLNIWGPGTLVTVSL
VL: DMTQTPASVEVAVGGTVTIKCQASQSIGSNLAWYQQKPGQSPKLLIYSASILASGVPSRFKGSGSGTQFTLTISGVQCDDAATYYCQQGYSVGNIDNAFGGGTEVVVK
B11: clone 227 rabbit anti-RANKL antibody (antibody, V domains shown)
VH: QSLEESGGRLVKPDETLTLTCTVSGFSLYNYEINWVRQAPGKGLEWIGYIDVGSGTWYASWAKGRFTISKTSTTVDLKITSPTTEDTATYFCTRKYNPMDLWGPGTLVTVSS
VL: DMTQTPASVEVAVGGTVTIKCQASQNIGSNLAWYQQKPGQPPKLLIYSTSTVASGVPSRFKGSGFGTQFTLTISGVQCDDAATYYCQQGYSAGNVNNPFGGGTEVVVK
B12: clone 270 rabbit anti-RANKL antibody (antibody, V domains shown)
VH: QSVEESGGRLVTPGTPLTLTCTVSGFSLSSDVMSWVRQAPGKGLDWIGYIWSGGRPYYANWAKGRFTISKSSSTTVDLKITSPTTEDTAAYFCARGFGSSGLNIWGPGTLVTVSL
VL: DMTQTPASVEVAVGGTVTIKCQASQNIGYNLAWYQQKPGQPPKLLIYGASTLASGVPSRFKGSGSGTQFTLTISGVQCDDAATYYCQQGYSVSNIDNAFGGGTEVVVK
B13: clone 388 rabbit anti-RANKL antibody (antibody, V domains shown)
VH: QSVEESGGRLVTPGTPLTLTCTVSGFSLSSGVVSWVRQAPGKGLEWIGYAWSGGPTYYANWAKGRFTISKSSTTVDLKITSPTTADTATYFCARGYNGMDPWGPGTLVTVSS
VL: DMTQTPASVEVAVGGTVTIKCQASQNIGSNLAWYQQKPGQPPKLLIYKASTLASGVPSRFRGSGSGTEFTLAISDLECADAATYYCQQGYTTKDVVNPFGGGTEVVVK
B14: clone 147 rabbit anti-RANKL antibody (antibody, V domains shown)
VH: QSVEESGGRLVTPGTPQTLTCTVSGFSLSTDVVSWVRQAPGKGLEWIGYTWNGGATYYASWAKGRFTFSKTSTTVDLKITSPTTEDTATYFCARGYNGMDPWGPGTLVTVSS
VL: DMTQTPASVEVAVGGTVTIKCQASQNIGSNLAWYQQKPGQPPKLLISKASTLASGVPSRFKGSGSGTEFTLAISDLECADAATYYCQQGYTTKNVVNPFGGGTEVVVK
B15: clone 130 rabbit anti-RANKL antibody (antibody, V domains shown)
VH: QSVEESGGRLVTPGTPLTLTCTVSGFSLSSGVVSWVRQAPGKGLEWIGYAWSGGATYYASWAKGRFTISKSSTTVDLKITSPTTADTATYFCARGYNGMDPWGPGTLVTVSS
VL: DMTQTPASVEVAVGGTVTIKCQASQNIGSNLAWYQQKPGQPPKLLIYKASTLASGVPSRFRGSGSGTEFTLAISDLECADAATYYCQQGYTTKDLVNPFGGGTEVVVK
B16: clone 68 rabbit anti-RANKL antibody (antibody, V domains shown)
VH: QEQLKESGGGLVKPDESLTLTCTASGFSLSSNGMSWARQAPGKGLEWIGYIYAGSSPYYANWAKGRFTISKTSSTTVDLKVTSLTTEDTATYFCARHASGGGWYLAIWGPGTLVTVSL
VL: DMIQTPASVEVAVGGTVTIGCQASQSIGSNLGWYQQKPGQPPKLLIYSASTLASGVSSRFKGSGSGTEFTLTISDVECDDAATYYCQQAYSVSNVDNAFGGGTEVVVK
B17: clone 299 rabbit anti-RANKL antibody (antibody, V domains shown)
VH: QSLEESGGRLVTPGTPLTLTCTVSGIDLSSSLMTWVRQAPGKGLEWIGYIWSGGAPFYASWAKGRFTISKTSSTTVDLKMTSLTTEDTATYFCAARYTDSGFDALDPWGPGTLVTVSS
VL: DMTQTPASVEAAVGGTVTIKCQASQSIGSYLSWYHQKPGQPPKLLIYRASTLASGVPSRFKGSGSGTQFTLTISDLECADAATYYCQQGYSANVDNAFGGGTEVVVK

Columns and labels:
[1] = biological target: T1, RANKL expressed on the surface of 293 …; experiment: flow cytometry (MFI) on RANKL-transfected 293 cells
human RANKL protein [2] = biological target: T2, human RANKL protein; experiment: competition ELISA: RANKL (0.5 ug/ml) pre-incubated with the antibody, then binding to coated human RANK (8 ug/ml) detected; blocked partner RANK
human RANKL protein [3] = biological target: T2, human RANKL protein; experiment: as above; remark: listed apart in the source
[4] = biological target: T1, RANKL expressed on the surface of 293 …; experiment: flow cytometry (MFI) on RANKL-transfected 293 cells; remark: listed apart in the source
human RANKL protein [5] = biological target: T2, human RANKL protein; experiment: competition ELISA: RANKL (0.5 ug/ml) pre-incubated with the antibody, then binding to coated human RANK (8 ug/ml) detected; blocked partner RANK; remark: listed apart in the source
[6] = biological target: T1, RANKL expressed on the surface of 293 …; experiment: flow cytometry (MFI) on RANKL-transfected 293 cells; remark: listed apart in the source
human RANKL protein [7] = biological target: T2, human RANKL protein; experiment: cell-based or functional assay
human RANKL protein [8] = biological target: T2, human RANKL protein; experiment: surface plasmon resonance

Binder	EC50 [1]	IC50 (human RANKL protein [2])	EC50 [4]	IC50 (human RANKL protein [5])	also measured
B1	0.248 µg/mL	0.0699 µg/mL			
B2			0.221 µg/mL		IC50 (human RANKL protein [3]): 0.0614 µg/mL
B3			0.2 µg/mL	0.0596 µg/mL	
B4			1 µg/mL	0.486 µg/mL	
B5			0.164 µg/mL		IC50 (human RANKL protein [3]): 0.0624 µg/mL
B6					EC50 [6]: 0.0831 µg/mL
B7	0.0664 µg/mL	0.0645 µg/mL			IC50 in a RAW cell assay (TRAP activity, OD 405 nM) (human RANKL protein [7]): 0.00488 µg/mL; Kd (human RANKL protein [8]): 589 pM; koff (human RANKL protein [8]): 0.000273 s⁻¹; kon (human RANKL protein [8]): 464000 M⁻¹ s⁻¹
B8			0.135 µg/mL	0.0508 µg/mL	
B9			0.153 µg/mL	0.0648 µg/mL	
B10	0.137 µg/mL	0.0436 µg/mL			
B11			0.0858 µg/mL	0.0643 µg/mL	
B12			0.0751 µg/mL	0.058 µg/mL	
B13			0.665 µg/mL		IC50 (human RANKL protein [3]): 0.161 µg/mL
B14	0.0721 µg/mL	0.0706 µg/mL			
B15	0.21 µg/mL	0.078 µg/mL			
B16	0.185 µg/mL	0.0766 µg/mL			
B17			0.207 µg/mL		IC50 (human RANKL protein [3]): 0.0907 µg/mL
